According to publication PMC5626966, “Molecular and Physiological Logics of the Pyruvate-Induced Response of a Novel Transporter in Bacillus subtilis” (mBio, 2017):

How the values were obtained:
[1] = biological target: T1, PftAB (YsbAB) pyruvate-facilitated transporter (Bacillus subtilis, UniProt P94515+P94516); test: transport in growing cells, extracellular pyruvate by HPLC, fit of facilitated transport model; type: cell-based; details: B. subtilis cells, M9 minimal medium; model estimate of facilitated transport (Text S1, Table S2)
T1 construct: gene lrgA; full-length untagged pftAB in B. subtilis cells (WT, delta-pftAB, IPTG-inducible Phs-pftAB strains)
T1 sequence (P94515 whole entry): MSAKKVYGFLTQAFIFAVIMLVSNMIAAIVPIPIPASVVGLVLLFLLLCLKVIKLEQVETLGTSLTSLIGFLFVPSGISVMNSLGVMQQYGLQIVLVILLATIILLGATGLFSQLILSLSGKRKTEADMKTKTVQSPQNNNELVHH
T1 sequence (P94516 whole entry): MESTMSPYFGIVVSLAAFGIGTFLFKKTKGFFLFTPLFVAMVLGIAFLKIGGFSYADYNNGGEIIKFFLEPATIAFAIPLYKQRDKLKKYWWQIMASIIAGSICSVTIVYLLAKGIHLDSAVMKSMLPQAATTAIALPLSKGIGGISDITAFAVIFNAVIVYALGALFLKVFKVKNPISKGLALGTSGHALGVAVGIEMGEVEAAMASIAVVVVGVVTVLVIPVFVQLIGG

[2] = biological target: T2, LytT (His6-LytT) (Bacillus subtilis (168?)) (UniProt P94514); test: EMSA; details: EMSA: LytT with 50 ng DNA and 50 µg/ml poly(dI-dC); CcpA with 10 ng DNA and 400 µg/ml salmon sperm DNA; 6% or 8% native acrylamide gel in TAE; binding buffer …
T2 sequence: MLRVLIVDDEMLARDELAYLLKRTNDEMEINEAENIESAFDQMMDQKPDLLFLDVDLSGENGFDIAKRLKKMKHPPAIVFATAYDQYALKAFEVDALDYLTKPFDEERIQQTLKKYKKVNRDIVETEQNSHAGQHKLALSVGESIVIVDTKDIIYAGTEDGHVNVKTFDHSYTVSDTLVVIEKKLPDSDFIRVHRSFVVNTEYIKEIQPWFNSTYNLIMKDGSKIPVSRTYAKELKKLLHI

| Km (apparent affinity constant) [1] | Compound | binding [2] |
| --- | --- | --- |
| ~ 1.0 ± 0.1 mmol ⋅ liter^−1 | CC(=O)C(=O)O [pyruvate] |  |
|  | CCATGGTTTAATTCAACGTATAATCTGATCATGAAAGACGGATCGAAAATACCGGTCAGCCGGACATATGCGAAGGAATTGAAAAAGCTGCTCCATATTTGATGGGCGGCTTTTTGCATTTCAGCCATTTGATTCTGCAACTCAGACCCGCTATACGGCATGTTATCTTGTAAGCGCTTTATAACAGGGAATTCTTATTTATAATGAGGGTACCAAAGAGAAAGAGGTGAAGAAAATGAGTGCTAAAAAAGTGTACG (double strand) [PpftAB 257 bp] | binds |
|  | CCATGGTTTAATTCAACGTATAATCTGATCATGAAAGACGGATCGAAAATACCGGTCAGCCGGACATATGCGAAGGAATTGAAAAAGCTGCTCCATATTTGATGGGCGGCTTTTTGCATTTCAGCCATTTGATTCTGCAACTCAGACCCGCTATACGGCATGTTATCTTGTAAGCGCTTTATAACAGGGAATTCTTATTTATAATGAGGGTACCAAAGAGAAAGAGGTGAAGAAAATGAGTGCTAAAAAAGTGTACG (double strand) [PpftAB reporter strain fragment 267 bp] | binds |
